From publication PMC6951436 come the findings set out here.

Test [1] has as its target pyruvate kinase liver isoform (PKL) (UniProt P12928). The test can be described thus: size-exclusion chromatography of oligomeric state. Particulars: reference: non-phosphorylated PKL (WT); sites S113. For orientation: In gel filtration, larger molecules generally elute earlier.
For test [2] the target is unchanged. The test can be described thus: native PAGE of oligomeric state. Particulars: reference: non-phosphorylated PKL (WT); sites S113.

Sequence of pyruvate kinase liver isoform (PKL) (from UniProt P12928-2) PKL pS113 proteoform (P12928 whole entry, looked up, change not shown, canonical isoform): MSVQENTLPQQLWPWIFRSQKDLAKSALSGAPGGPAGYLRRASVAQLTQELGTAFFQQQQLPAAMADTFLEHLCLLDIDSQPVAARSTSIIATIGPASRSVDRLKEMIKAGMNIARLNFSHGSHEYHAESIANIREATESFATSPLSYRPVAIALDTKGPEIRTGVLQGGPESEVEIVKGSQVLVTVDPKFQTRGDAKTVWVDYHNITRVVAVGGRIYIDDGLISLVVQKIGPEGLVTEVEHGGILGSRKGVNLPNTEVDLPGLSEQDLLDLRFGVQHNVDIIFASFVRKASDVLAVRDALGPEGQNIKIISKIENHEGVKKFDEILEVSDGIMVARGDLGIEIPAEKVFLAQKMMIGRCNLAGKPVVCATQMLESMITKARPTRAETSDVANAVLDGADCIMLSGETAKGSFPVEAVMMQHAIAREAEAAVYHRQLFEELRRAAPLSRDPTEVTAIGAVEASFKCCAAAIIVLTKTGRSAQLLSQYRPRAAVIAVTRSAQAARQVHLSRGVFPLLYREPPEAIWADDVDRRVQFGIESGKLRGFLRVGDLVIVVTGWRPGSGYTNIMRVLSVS
Sequence of pyruvate kinase liver isoform (PKL) (UniProt P12928) (P12928 whole entry, looked up, canonical isoform): as the sequence (P12928 whole entry, looked up, change not shown, canonical isoform) above

“pyruvate kinase liver isoform (PKL) (from UniProt P12928-2) PKL pS113 proteoform”: the “binding against the reference” value in test [1] and in test [2] was “same” in each case.
